Measurements taken from patent US20040161419A1, “Placental stem cells and uses thereof” (priority 2002, published 2004).

B1: FGF 4: fibroblast growth factor 4, media supplement (protein, UniProt P08620 31-206, looked up)
Fibroblast growth factor 4: APTAPNGTLEAELERRWESLVALSLARLPVAAQPKEAAVQSGAGDYLLGIKRLRRLYCNVGIGFHLQALPDGRIGGAHADTRDSLLELSPVERGVVSIFGVASRFFVAMSSKGKLYGSPFFTDECTFKEILLPNNYNAYESYKYPGMFIALSKNGKTKKGNRVSPTMKVTHFLPRL
B2: EGF: epidermal growth factor, media supplement (protein, UniProt P01133 23-1207, looked up)
Pro-epidermal growth factor: PQHWSCPEGTLAGNGNSTCVGPAPFLIFSHGNSIFRIDTEGTNYEQLVVDAGVSVIMDFHYNEKRIYWVDLERQLLQRVFLNGSRQERVCNIEKNVSGMAINWINEEVIWSNQQEGIITVTDMKGNNSHILLSALKYPANVAVDPVERFIFWSSEVAGSLYRADLDGVGVKALLETSEKITAVSLDVLDKRLFWIQYNREGSNSLICSCDYDGGSVHISKHPTQHNLFAMSLFGDRIFYSTWKMKTIWIANKHTGKDMVRINLHSSFVPLGELKVVHPLAQPKAEDDTWEPEQKLCKLRKGNCSSTVCGQDLQSHLCMCAEGYALSRDRKYCEDVNECAFWNHGCTLGCKNTPGSYYCTCPVGFVLLPDGKRCHQLVSCPRNVSECSHDCVLTSEGPLCFCPEGSVLERDGKTCSGCSSPDNGGCSQLCVPLSPVSWECDCFPGYDLQLDEKSCAASGPQPFLLFANSQDIRHMHFDGTDYGTLLSQQMGMVYALDHDPVENKIYFAHTALKWIERANMDGSQRERLIEEGVDVPEGLAVDWIGRRFYWTDRGKSLIGRSDLNGKRSKIITKENISQPRGIAVHPMAKRLFWTDTGINPRIESSSLQGLGRLVIASSDLIWPSGITIDFLTDKLYWCDAKQSVIEMANLDGSKRRRLTQNDVGHPFAVAVFEDYVWFSDWAMPSVMRVNKRTGKDRVRLQGSMLKPSSLVVVHPLAKPGADPCLYQNGGCEHICKKRLGTAWCSCREGFMKASDGKTCLALDGHQLLAGGEVDLKNQVTPLDILSKTRVSEDNITESQHMLVAEIMVSDQDDCAPVGCSMYARCISEGEDATCQCLKGFAGDGKLCSDIDECEMGVPVCPPASSKCINTEGGYVCRCSEGYQGDGIHCLDIDECQLGEHSCGENASCTNTEGGYTCMCAGRLSEPGLICPDSTPPPHLREDDHHYSVRNSDSECPLSHDGYCLHDGVCMYIEALDKYACNCVVGYIGERCQYRDLKWWELRHAGHGQQQKVIVVAVCVVVLVMLLLLSLWGAHYYRTQKLLSKNPKNPYEESSRDVRSRRPADTEDGMSSCPQPWFVVIKEHQDLKNGGQPVAGEDGQAADGSMQPTSWRQEPQLCGMGTEQGCWIPVSSDKGSCPQVMERSFHMPSYGTQTLEGGVEKPHSLLSANPLWQQRALDPPHQMELTQ
modifications: Pro-epidermal growth factor
notes: epidermal growth factor, media supplement
B3: FGF 7: fibroblast growth factor 7, media supplement (protein, UniProt P21781 32-194, looked up)
Fibroblast growth factor 7: CNDMTPEQMATNVNCSSPERHTRSYDYMEGGDIRVRRLFCRTQWYLRIDKRGKVKGTQEMKNNYNIMEIRTVAVGIVAIKGVESEFYLAMNKEGKLYAKKECNEDCNFKELILENHYNTYASAKWTHNGGEMFVALNQKGIPVRGKKTKKEQKTAHFLPMAIT

What was measured:
placental stem cells [1] = system: placental stem cells
Method: The cells were cultured for either 7-10 days or until the cultures grew to confluence. The cells were trypsinized and reseeded in 6 well plates. The cells were subjected to different culture conditions, having varying growth factors supplementing the DMEM or MEM based medium. […] Placental stem cells were cultured for an additional 14 days. At the end of 14 days, the cells were evaluated for the expression of human albumin, CYP3A4, A1AT, or C/EBP-alpha.

placental stem cells [2] = assay: Culture in the presence or absence of EGF (growth curve); format: cell-based, human; details: EGF 10 ng/ml versus absence of EGF
Method: A human placenta was obtained from an uncomplicated elective caesarean section. The whole placenta was placed in a sterilized 1000 ml cup and washed with Hank's Balanced Salt Solution (HBSS) containing penicillin G (100 U/ml), streptomycin (100 μg/ml), and amphotericin B (0.25 μg/ml). The umbilical cord was cut and the whole placenta was cut in half at the point of attachment of the umbilical cord. The amnion layer was peeled from the underlying chorion layer of the placenta by gentle stripping with a sterile scalpel, starting from the cut edge (middle of the placental body) and working outward. The amnion was washed with HBSS (without antibiotics) and rinsed with 0.05% Trypsin-EDTA. 0.05% Trypsin-EDTA was added to approximately twice the volume of the tissue in a 50 cc Falcon tube and incubated at 37° C. for 20 min on shaker in a 5% CO2 incubator. The tissue is transferred to a new tube with 0.05% Trypsin-EDTA. Media was added to remaining supernatant in the tube to stop trypsinization and centrifuged at 800 rpm for 10 min at 4° C. The pellet was resuspended in DMEM, 10% FBS, 1 mM Sodium Pyruvate, EGF (10 ng/ml), penicillin G (100 U/ml), streptomycin (100 μg/ml), and amphotericin B (0.25 μg/ml). The trysinization step was repeated up to a total of 3 times. The cells released by each trypsinization were plated separately or mixed in one tube after passing through a 100 μm cell strainer. […]

Row | Molecule | liver specific gene expression (albumin, CYP3A4, A1AT, C/EBP-alpha) (placental stem cells [1]) | proliferation of placental stem cells (placental stem cells [2]) | proliferation of placental stem cells (placental stem cells [2]; listed as Epidermal Growth Factor (EGF))
1 | B1 | did not enhance liver specific gene expression | – | –
2 | B2 | enhance liver specific gene expression | proliferate robustly | grow significantly better
3 | B3 | did not enhance liver specific gene expression | – | –
